T1: cynomolgus monkey FcγRIIa3 extracellular domain with C-terminal His-tag (cynomolgus monkey)
T1 construct: also called cyno FcγRIIa3; FcgRIIa3
T1 chain: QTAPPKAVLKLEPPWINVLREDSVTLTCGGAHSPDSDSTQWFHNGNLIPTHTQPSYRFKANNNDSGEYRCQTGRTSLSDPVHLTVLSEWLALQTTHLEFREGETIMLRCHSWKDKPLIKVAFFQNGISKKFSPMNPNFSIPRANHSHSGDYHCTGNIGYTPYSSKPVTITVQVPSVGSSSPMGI

T2: cynomolgus monkey FcγRIIa1 extracellular domain with C-terminal His-tag (cynomolgus monkey)
T2 construct: also called cyno FcgRIIa1; cynoFcγRIIa1; not shown: His-tag added to the C-terminus
T2 chain: T1 chain with T95P, A121T, S128A, P133H, N135D

T3: cynomolgus monkey FcγRIIa3 extracellular domain with C-terminal His-tag (cynomolgus monkey)
T3 construct: also called cyno FcgRIIa3; cynoFcγRIIa3; not shown: His-tag added to the C-terminus
T3 chain: T1 chain

T4: human FcγRIIaH extracellular domain with C-terminal His-tag (human, UniProt P12318 34-217)
T4 construct: also called human FcgRIIaH; FcγRIIa type H; not shown: His-tag added to the C-terminus
T4 sequence: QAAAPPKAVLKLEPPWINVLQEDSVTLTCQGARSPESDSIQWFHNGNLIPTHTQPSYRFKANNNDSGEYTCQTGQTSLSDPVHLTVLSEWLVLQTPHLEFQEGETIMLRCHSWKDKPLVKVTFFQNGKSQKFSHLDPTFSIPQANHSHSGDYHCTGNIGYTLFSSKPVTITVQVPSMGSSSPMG

T5: human FcγRIIaR extracellular domain with C-terminal His-tag (human, UniProt P12318 34-217)
T5 construct: also called human FcgRIIaR; FcγRIIa type R; not shown: His-tag added to the C-terminus
T5 chain: T4 sequence with H134R

T6: human FcγRIIb extracellular domain with C-terminal His-tag (human, UniProt P31994 43-217)
T6 construct: also called human FcgRIIb; not shown: His-tag added to the C-terminus
T6 sequence: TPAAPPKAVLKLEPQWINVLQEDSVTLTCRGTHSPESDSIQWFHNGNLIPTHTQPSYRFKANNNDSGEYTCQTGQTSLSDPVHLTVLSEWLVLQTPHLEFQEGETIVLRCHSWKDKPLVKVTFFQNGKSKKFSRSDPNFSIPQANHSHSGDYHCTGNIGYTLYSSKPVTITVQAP

T7: human FcγRIIaH extracellular domain, His-tagged (human, UniProt P12318 34-217)
T7 construct: also called human FcgRIIaH; FcγRIIa type H
T7 sequence: T4 sequence

T8: human FcγRIIaR extracellular domain, His-tagged (human, UniProt P12318 34-217)
T8 construct: also called human FcgRIIaR; FcγRIIa type R
T8 chain: T4 sequence with H134R

T9: human FcγRIIb extracellular domain, His-tagged (human, UniProt P31994 43-217)
T9 construct: also called human FcgRIIb
T9 sequence: T6 sequence

B1: M103205H795-MY321 (heavy chain) with M103202L889-SK1 (light chain) (antibody, human IgG1, kappa, name in EU numbering)
heavy: QVTLKESGPVLVKPTETLTLTCTVSGIDLSHDDISWVRQAPGKGLEWVGIISYAGSTYYASWAKGRLTISKDTSKNQVVLTMTNMDPVDTATYYCARGVPAYSHGGDLWGQGTLVTVSSASTKGPSVFPLAPSSKSTSGGTAALGCLVKDYFPEPVTVSWNSGALTSGVHTFPAVLQSSGLYSLSSVVTVPSSSLGTQTYICNVNHKPSNTKVDKKVEPKSCDKTHTCPPCPAPELLHGPSVFLFPPKPKDTLMISRTPEVTCVVVDVSDEDPEVKFNWYVDGVEVHNAKTKPREEQYNSTYRVVSVLTVLHQDWLNGKEYKCKVSNKALPKPIEKTISKAKGQPREPQVYTLPPSREEMTKNQVSLTCLVKGFYPSDIAVEWESNGQPENNYKTTPMVLDSDGSFFLYSKLTVDKSRWQQGNVFSCSVMHEALHNHYTQKSLSLSP
light: DIVMTQSPATLSLSPGERATLSCTSSQSVYHANWLSWFQQKPGQPPKLLIYWASTLAYGVPSRFSGSGSGTDFTLTISSLQPEDAATYYCAGGYGGGRYAFGQGTKVEIKRTVAAPSVFIFPPSDEQLKSGTASVVCLLNNFYPREAKVQWKVDNALQSGNSQESVTEQDSKDSTYSLSSTLTLSKADYEKHKVYACEVTHQGLSSPVTKSFNRGEC
notes: Substitutions introduced into M103205H795-SG1; positions in EU numbering
B2: M103205H795-MY105/M103202L889-SK1 (antibody, human IgG1, kappa, name in EU numbering)
heavy: B1 heavy with H238N, S241V, D270E, K332A
light: B1 light
notes: Fc variant of MS1032LO06-SG1; positions in EU numbering
B3: M103205H795-MY206/M103202L889-SK1 (antibody, human IgG1, kappa, name in EU numbering)
heavy: B1 heavy with H238N, S241V, Q297L, M398P
light: B1 light
notes: as for B2
B4: M103205H795-MY289/M103202L889-SK1 (antibody, human IgG1, kappa, name in EU numbering)
heavy: B1 heavy with H238N, D270H
light: B1 light
notes: as for B2
B5: M103205H795-MY199/M103202L889-SK1 (antibody, human IgG1, kappa, name in EU numbering)
heavy: B1 heavy with H238N, D270E, M398P
light: B1 light
notes: as for B2
B6: GpH7-B3 G236N / GpL16-k0 (antibody, human IgG1, kappa)
heavy: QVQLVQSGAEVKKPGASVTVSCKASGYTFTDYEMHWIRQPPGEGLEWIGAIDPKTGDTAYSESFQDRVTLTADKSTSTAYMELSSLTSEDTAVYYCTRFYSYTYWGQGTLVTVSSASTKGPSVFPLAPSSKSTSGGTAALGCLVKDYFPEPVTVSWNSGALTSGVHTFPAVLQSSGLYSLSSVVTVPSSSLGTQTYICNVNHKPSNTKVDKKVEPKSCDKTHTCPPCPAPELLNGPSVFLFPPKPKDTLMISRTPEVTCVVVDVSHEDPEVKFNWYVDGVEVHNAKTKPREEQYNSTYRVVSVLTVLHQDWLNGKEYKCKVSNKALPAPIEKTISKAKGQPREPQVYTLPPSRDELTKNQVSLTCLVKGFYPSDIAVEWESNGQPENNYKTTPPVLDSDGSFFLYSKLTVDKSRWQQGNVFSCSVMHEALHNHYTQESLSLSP
light: DIVMTQSPLSLPVTPGEPASISCQASESLVHSNRNTYLHWYLQKPGQSPQLLIYKVSNRFSGVPDRFSGSGSGTDFTLKISRVEAEDVGVYYCSQNTHVPPTFGQGTKVEIERTVAAPSVFIFPPSDEQLKSGTASVVCLLNNFYPREAKVQWKVDNALQSGNSQESVTEQDSKDSTYSLSSTLTLSKADYEKHKVYACEVTHQGLSSPVTKSFNRGEC
notes: also called B3 variant G236N
B7: GpH7-B3 P238Q / GpL16-k0 (antibody, human IgG1, kappa)
heavy: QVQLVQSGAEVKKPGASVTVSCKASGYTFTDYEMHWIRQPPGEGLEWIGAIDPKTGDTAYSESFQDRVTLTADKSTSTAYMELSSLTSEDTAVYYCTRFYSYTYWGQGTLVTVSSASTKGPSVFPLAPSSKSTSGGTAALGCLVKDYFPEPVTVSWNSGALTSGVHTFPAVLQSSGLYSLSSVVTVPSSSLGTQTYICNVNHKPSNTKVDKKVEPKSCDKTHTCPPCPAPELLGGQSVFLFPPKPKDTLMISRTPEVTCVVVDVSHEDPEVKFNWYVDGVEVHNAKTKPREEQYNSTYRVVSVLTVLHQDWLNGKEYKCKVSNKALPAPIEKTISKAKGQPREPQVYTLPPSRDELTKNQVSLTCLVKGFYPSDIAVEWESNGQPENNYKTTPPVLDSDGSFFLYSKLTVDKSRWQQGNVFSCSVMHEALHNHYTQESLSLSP
light: B6 light
notes: also called B3 variant P238Q
B8: GpH7-B3 P238E / GpL16-k0 (antibody, human IgG1, kappa)
heavy: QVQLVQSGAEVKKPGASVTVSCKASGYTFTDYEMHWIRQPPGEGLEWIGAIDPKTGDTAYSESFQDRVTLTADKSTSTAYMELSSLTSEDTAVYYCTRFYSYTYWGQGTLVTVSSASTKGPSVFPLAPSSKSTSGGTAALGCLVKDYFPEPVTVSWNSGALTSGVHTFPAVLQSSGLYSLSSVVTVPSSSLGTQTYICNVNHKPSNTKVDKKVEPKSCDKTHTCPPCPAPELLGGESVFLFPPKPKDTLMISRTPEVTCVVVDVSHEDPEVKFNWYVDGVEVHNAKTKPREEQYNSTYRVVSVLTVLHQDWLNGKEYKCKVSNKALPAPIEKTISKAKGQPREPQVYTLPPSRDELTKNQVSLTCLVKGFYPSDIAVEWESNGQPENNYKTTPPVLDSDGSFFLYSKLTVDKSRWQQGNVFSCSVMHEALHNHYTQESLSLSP
light: B6 light
notes: also called B3 variant P238E
B9: GpH7-B3 S267L / GpL16-k0 (antibody, human IgG1, kappa)
heavy: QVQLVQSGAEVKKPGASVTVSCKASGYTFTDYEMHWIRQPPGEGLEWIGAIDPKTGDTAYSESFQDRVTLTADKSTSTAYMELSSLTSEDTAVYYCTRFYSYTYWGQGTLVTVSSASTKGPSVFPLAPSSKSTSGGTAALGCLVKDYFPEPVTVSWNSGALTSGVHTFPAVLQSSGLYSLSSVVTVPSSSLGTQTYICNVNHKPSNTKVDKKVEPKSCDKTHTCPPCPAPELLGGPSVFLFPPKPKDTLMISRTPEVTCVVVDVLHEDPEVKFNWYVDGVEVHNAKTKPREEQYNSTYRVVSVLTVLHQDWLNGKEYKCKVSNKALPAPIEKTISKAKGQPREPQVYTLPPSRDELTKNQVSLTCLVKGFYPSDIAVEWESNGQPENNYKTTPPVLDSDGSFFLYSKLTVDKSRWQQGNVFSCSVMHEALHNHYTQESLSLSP
light: B6 light
notes: also called B3 variant S267L
B10: GpH7-B3 N325E / GpL16-k0 (antibody, human IgG1, kappa)
heavy: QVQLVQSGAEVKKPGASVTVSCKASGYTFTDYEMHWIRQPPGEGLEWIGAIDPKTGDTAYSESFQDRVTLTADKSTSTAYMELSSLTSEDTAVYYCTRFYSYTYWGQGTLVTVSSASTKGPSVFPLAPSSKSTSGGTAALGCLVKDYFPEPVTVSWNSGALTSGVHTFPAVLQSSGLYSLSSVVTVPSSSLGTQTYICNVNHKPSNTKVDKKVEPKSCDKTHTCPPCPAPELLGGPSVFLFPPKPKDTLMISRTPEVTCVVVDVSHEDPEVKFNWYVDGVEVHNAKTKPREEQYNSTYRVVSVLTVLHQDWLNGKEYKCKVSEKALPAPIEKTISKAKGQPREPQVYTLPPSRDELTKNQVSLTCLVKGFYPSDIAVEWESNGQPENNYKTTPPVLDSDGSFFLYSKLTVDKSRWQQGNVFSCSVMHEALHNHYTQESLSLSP
light: B6 light
notes: also called B3 variant N325E
B11: GpH7-B3 A327I / GpL16-k0 (antibody, human IgG1, kappa)
heavy: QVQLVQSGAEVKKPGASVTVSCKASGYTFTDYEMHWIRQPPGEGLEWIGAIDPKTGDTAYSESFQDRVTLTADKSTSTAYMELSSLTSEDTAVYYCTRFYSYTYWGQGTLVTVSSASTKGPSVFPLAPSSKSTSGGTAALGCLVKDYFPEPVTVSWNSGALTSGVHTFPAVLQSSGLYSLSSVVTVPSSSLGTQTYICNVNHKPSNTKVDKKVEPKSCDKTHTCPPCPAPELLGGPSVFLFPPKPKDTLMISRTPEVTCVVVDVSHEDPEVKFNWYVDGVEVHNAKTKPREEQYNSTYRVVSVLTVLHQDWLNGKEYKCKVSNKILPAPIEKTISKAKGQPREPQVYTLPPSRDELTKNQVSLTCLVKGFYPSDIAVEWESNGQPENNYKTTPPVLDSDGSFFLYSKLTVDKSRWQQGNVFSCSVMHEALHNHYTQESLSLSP
light: B6 light
notes: also called B3 variant A327I
B12: GpH7-B3 G237D / GpL16-k0 (antibody, human IgG1, kappa)
heavy: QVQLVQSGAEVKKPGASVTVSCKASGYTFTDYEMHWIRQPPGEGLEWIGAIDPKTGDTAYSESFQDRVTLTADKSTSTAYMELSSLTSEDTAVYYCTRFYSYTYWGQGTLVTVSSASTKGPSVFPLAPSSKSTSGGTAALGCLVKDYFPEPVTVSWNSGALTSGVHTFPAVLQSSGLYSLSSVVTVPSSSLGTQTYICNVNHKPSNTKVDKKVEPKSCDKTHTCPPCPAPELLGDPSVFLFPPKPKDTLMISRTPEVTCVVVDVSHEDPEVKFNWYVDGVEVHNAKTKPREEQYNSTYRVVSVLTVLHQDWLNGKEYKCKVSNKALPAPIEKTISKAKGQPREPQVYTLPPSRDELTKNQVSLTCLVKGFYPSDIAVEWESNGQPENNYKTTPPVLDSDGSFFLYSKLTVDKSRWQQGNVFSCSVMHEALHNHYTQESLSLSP
light: B6 light
notes: also called B3 variant G237D
B13: GpH7-B3 S267H / GpL16-k0 (antibody, human IgG1, kappa)
heavy: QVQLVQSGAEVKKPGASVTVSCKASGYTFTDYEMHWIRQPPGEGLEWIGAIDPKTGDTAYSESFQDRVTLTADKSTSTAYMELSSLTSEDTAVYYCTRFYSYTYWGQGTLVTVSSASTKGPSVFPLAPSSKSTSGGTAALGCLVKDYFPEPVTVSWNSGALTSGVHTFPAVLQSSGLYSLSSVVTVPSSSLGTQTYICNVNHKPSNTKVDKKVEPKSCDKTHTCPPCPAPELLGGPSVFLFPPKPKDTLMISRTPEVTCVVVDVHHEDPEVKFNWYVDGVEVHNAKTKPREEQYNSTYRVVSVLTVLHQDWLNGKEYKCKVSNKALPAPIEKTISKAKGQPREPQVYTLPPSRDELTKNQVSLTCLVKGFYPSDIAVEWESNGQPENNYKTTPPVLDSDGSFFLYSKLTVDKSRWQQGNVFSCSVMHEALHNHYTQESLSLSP
light: B6 light
notes: also called B3 variant S267H

Changes are numbered by the printed parent chain. Names may count otherwise.

The term Kd denotes the concentration at which binding is half-saturated.

The target of the first assay is T1, cynomolgus monkey FcγRIIa3 …. The assay can be described thus: SPR; KD of SG1 / KD of variant. The procedure:
The kinetic analysis of interactions between these antibodies and FcγR was carried out using BIACORE® T200 or BIACORE® 4000 (GE Healthcare). HBS-EP+ (GE Healthcare) was used as the running buffer, and the measurement temperature was set to 25° C. […] After the measurement, the antibody captured on the chip was washed off by allowing reaction with 10 mM glycine-HCl, pH1.5 and 25 mM NaOH so that the chip was regenerated and used repeatedly. The sensorgrams obtained as measurement results were analyzed by the 1:1 Langmuir binding model using the BIACORE® Evaluation Software to calculate the binding rate constant ka (L/mol/s) and dissociation rate constant kd (1/s), and the dissociation constant KD (mol/L) was calculated from these values. […] Regarding such interactions, KD values were calculated using the following 1:1 binding model described in BIACORE® T100 Software Handbook BR1006-48 Edition AE.
In the case of B1, the “KD fold (SG1 = 1)” value was 5.9 fold.

For a further assay, the target named is T10, cynomolgus monkey FcγRIIIaS extracellular domain with C-terminal His-tag (cynomolgus monkey, UniProt A3RFZ7 21-206 (rhesus entry)).
T10 construct: also called cyno FcgRIIIaS; cynoFcγRIIIaS; not shown: His-tag added to the C-terminus
T10 sequence (A3RFZ7 21-206): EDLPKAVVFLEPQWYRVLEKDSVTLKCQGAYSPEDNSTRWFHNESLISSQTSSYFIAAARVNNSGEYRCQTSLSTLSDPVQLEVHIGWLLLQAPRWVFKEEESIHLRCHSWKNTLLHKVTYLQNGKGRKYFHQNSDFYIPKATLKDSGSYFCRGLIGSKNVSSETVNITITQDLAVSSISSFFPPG
The experiment in a line: SPR (BIACORE); KD of SG1 / KD of variant.
For B2, the “KD fold (SG1 = 1)” value was 0.28 fold.

Another assay addresses T2, cynomolgus monkey FcγRIIa1 …. The experiment in a line: SPR (BIACORE), antibody captured, FcgR analyte.
With B2, binding was put at a Kd of 1200 nM.

Molecule B3 gave a Kd of 810 nM.

As for B4, binding was characterised by a dissociation constant (Kd) of 1500 nM.

B5 showed a Kd of 1900 nM.

The target of the next assay is T3, cynomolgus monkey FcγRIIa3 …. The experiment in a line: SPR (BIACORE), antibody captured, FcgR analyte. For orientation: In SPR one partner is held on a chip, and binding of the other changes the refractive index at the surface.
For the molecule B2, binding was characterised by a dissociation constant (Kd) of 1500 nM.

B3 came in with a Kd of 3000 nM.

Molecule B4 came in with a Kd of 8600 nM.

In a further assay the target is T10, cynomolgus monkey FcγRIIIaS …. The assay can be described thus: SPR (BIACORE), antibody captured, FcgR analyte.
B2: the Kd was 1300 nM.

Consider B3, for which the affinity, expressed as Kd, was 3500 nM.

In turn, B4 returned a Kd of 5200 nM.

With B5, the Kd came to 41 nM.

The target of the next assay is T4, human FcγRIIaH extracellular domain …. The experiment in a line: SPR (BIACORE), antibody captured, FcgR analyte.
B2: the Kd stood at 1500 nM.

Regarding B5, the Kd worked out at 1100 nM.

For another assay, the target named is T5, human FcγRIIaR extracellular domain …. The experiment in a line: SPR (BIACORE), antibody captured, FcgR analyte.
In the case of B4, the Kd worked out at 3.5 µM.

The target of another assay is T6, human FcγRIIb extracellular domain with …. The assay can be described thus: SPR (BIACORE), antibody captured, FcgR analyte.
B3: the dissociation constant (Kd) was 900 nM.

A further assay deals with T11, human FcγRIIIaV extracellular domain with C-terminal His-tag (human, UniProt P08637 17-208).
T11 construct: also called human FcgRIIIaV; not shown: His-tag added to the C-terminus
T11 sequence (P08637 17-208 F176V): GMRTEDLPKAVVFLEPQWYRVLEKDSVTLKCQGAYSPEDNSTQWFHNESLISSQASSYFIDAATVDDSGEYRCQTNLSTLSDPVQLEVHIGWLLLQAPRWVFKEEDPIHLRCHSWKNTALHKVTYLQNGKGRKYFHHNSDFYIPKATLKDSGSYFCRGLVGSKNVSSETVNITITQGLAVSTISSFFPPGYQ
The experiment in a line: SPR (BIACORE), antibody captured, FcgR analyte.
In turn, B5 came in with a Kd of 13 µM.

The target of a further assay is T7, human FcγRIIaH extracellular domain, …. The assay can be described thus: SPR (Biacore), 25C, FcgR bound per antibody captured.
As to B6, the “Binding to human FcgRs (parent B3 = 100)” value came to 54.

Take B7: the “Binding to human FcgRs (parent B3 = 100)” value turned out to be 19.

Turning to B8, the “Binding to human FcgRs (parent B3 = 100)” value stood at 21.

Regarding B9, the “Binding to human FcgRs (parent B3 = 100)” value worked out at 63.

As for B10, the “Binding to human FcgRs (parent B3 = 100)” value was 49.

For the molecule B11, the “Binding to human FcgRs (parent B3 = 100)” value came to 37.

As to B12, the “Binding to human FcgRs (parent B3 = 100)” value stood at 74.

B13: the “Binding to human FcgRs (parent B3 = 100)” value amounted to 27.

In a further assay the target is T8, human FcγRIIaR extracellular domain, …. The description is as above.
Regarding B6, the “Binding to human FcgRs (parent B3 = 100)” value is 81.

For the molecule B7, the “Binding to human FcgRs (parent B3 = 100)” value stood at 4.

In the case of B8, the “Binding to human FcgRs (parent B3 = 100)” value worked out at 2.

For the molecule B9, the “Binding to human FcgRs (parent B3 = 100)” value was 3.

For the molecule B10, the “Binding to human FcgRs (parent B3 = 100)” value came out at 13.

For the molecule B11, the “Binding to human FcgRs (parent B3 = 100)” value worked out at 12.

On to B12, for which the “Binding to human FcgRs (parent B3 = 100)” value amounted to 0.

Turning to B13, the “Binding to human FcgRs (parent B3 = 100)” value is 3.

The target in another assay is T9, human FcγRIIb extracellular domain, …. The description is as above.
For B6, the “Binding to human FcgRs (parent B3 = 100)” value worked out at 75.

Consider B7, for which the “Binding to human FcgRs (parent B3 = 100)” value amounted to 43.

On to B9, for which the “Binding to human FcgRs (parent B3 = 100)” value came out at 112.

Regarding B10, the “Binding to human FcgRs (parent B3 = 100)” value was found to be 40.

Turning to B11, the “Binding to human FcgRs (parent B3 = 100)” value is 46.

As to B12, the “Binding to human FcgRs (parent B3 = 100)” value turned out to be 95.

With B13, the “Binding to human FcgRs (parent B3 = 100)” value came out at 42.

Another assay deals with T12, human FcγRIIIaV extracellular domain, His-tagged (human, UniProt P08637 17-208).
T12 construct: also called human FcgRIIIaV
T12 sequence (P08637 17-208 F176V): as above
The description is as above.
For the molecule B7, the “Binding to human FcgRs (parent B3 = 100)” value is -1.

For B8, the “Binding to human FcgRs (parent B3 = 100)” value worked out at 1.

Take B9: the “Binding to human FcgRs (parent B3 = 100)” value came out at 2.

Turning to B10, the “Binding to human FcgRs (parent B3 = 100)” value was 4.

For the molecule B12, the “Binding to human FcgRs (parent B3 = 100)” value is 0.

Regarding B13, the “Binding to human FcgRs (parent B3 = 100)” value stood at 1.

The values are drawn from patent US20250076311A1 (Chugai, published 2025).
